Laboratory results as given in patent publication US9925134B2, “Use of substances to protect FGF-2 or FGF-beta growth factor” (BASF Beauty Care Solutions France SAS, priority 2007, dated 2018).

What was measured:
FGF-2 = FGF-2 (Homo sapiens, UniProt P09038); assay: Study of thermal degradation (stability) of FGF-2 at various temperatures with or without heparin, ELISA; format: physicochemical; conditions: without heparin
Experimental: A 5 ng/ml solution of FGF-2 in a 10 mM PBS buffer with 0.1% BSA and 0.1% of methylparaben is prepared.
This solution is placed at various temperatures: 4° C., 20° C., 37° C., 50° C., and 80° C. either in the presence of heparin or not at 500 μg/ml.
Dosages of FGF-2 with a commercial ELISA kit (R&D system, France) are performed at different times (T=0, 3 hrs, 24 hrs and 48 hrs) so as to establish degradation kinetics for each temperature of investigation.
The results are expressed as a percentage of FGF-2 relative to time T=0. The experiments are conducted in triplicates (n=3). The obtained results are illustrated in FIGS. 1 and 2.

cathepsin G = molecular target: T1, cathepsin G (Homo sapiens, UniProt P08311); assay: Degradation kinetics of FGF-2 by cathepsin G; format: biochemical; conditions: for FGF-2 concentration in the presence of cathepsin G / FGF-2 concentration Temperature control: 37° C.; for FGF-2 concentration in the presence of cathepsin G: cathepsin G 0.02 U per well; for FGF-2 concentration Temperature control: enzyme-free; for Degradation % in the presence of cathepsin G: relative to temperature control
T1 sequence (P08311 21-244): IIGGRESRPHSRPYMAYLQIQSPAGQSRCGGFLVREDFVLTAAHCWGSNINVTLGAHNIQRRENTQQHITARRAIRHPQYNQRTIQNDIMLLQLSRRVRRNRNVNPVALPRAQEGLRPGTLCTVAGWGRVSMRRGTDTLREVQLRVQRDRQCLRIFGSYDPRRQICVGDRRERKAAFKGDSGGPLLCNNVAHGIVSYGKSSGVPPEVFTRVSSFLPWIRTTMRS
Experimental: For this reason, a study of the degradation of FGF-2 by cathepsin G was conducted. Degradation kinetics was carried out in a 100 mM Hepes buffer, pH7 containing 0.1% BSA. Cathepsin G was added into the wells of the plate at a concentration of 0.02 U per well to a 2 ng/well FGF-2 solution. The plate was incubated at 37° C. and sampling was performed at 15, 30, 60, 90 and 120 minutes in order to dose the remaining FGF-2.
The control (100%) is made by extemporaneous dosage of FGF-2. At the same time, an enzyme-free control solution is placed at 37° C. in order to study thermal degradation at the different times, so as to get rid of this degradation due to temperature and to quantify the portion only due to enzymatic degradation.

[1] = 37° C.; neutral pH; cited from earlier work
[2] = test system: normal human dermal fibroblasts; assay: Fibroblast proliferation by FGF-2 protected by heparin or extract 5c (PNPP); format: cell-based; conditions: for Proliferation (expressed as percent relative to the non-treated well): 48 hrs, heparin 0.01% during 24 hrs at 37° C.
Experimental: A solution of FGF-2 is prepared extemporaneously (=non-degraded FGF-2); a solution of FGF-2 is placed for 24 hrse at 37° C. in the absence (=degraded FGF-2) and in the presence of heparin (=FGF-2+heparin at 37° C.) at 0.01%.
Each FGF-2 solution is diluted so as to be applied on the cells, the final FGF-2 concentrations being the following: 0.1, 0.25, 0.5, 0.75 and 1 ng/ml.
Normal human dermal fibroblasts were sown at low density in 6-well plates. They were then grown in a medium in the absence (control) or in the presence of FGF-2 at various concentrations.
After 48 hrs, the activity of intracellular acid phosphatases (PNPP) is dosed, so as to be able to evaluate the effect of FGF-2 solutions, either treated or not, on cell proliferation.
The results are expressed as a proliferation percentage relative to the control well i.e. to the non-treated well.
The same experiment was conducted by replacing heparin with extract 5c. The FGF-2 solution put into the presence of 0.5% of extract 5c is placed for 24 hrs at 37° C. The solution is then diluted so as to apply 0.5 ng/ml of FGF-2 in the wells containing the fibroblasts.
The 5c extract concentration finally applied on the cells is 0.0025%. It was checked beforehand that this 5c extract concentration was not capable of inducing stimulation of the proliferation of fibroblasts. This means that the observed stimulation of proliferation is actually due to the protection of FGF-2 by extract 5c (see Table 8).

FGF-2, sequence (P09038 143-288): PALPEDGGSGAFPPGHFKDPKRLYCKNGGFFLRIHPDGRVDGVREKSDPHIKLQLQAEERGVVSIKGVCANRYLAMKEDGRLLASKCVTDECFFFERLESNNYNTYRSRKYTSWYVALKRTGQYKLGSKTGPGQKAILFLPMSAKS

Substance: FGF-2: Fibroblast Growth Factor; non-degraded = solution of FGF-2 prepared extemporaneously
- FGF-2 degraded (percentage relative to T=0) (FGF-2; 4° C., 48 hrs): 20%
- FGF-2 degradation (percentage relative to T=0) (FGF-2; 37° C., 3 hrs): 65%
- FGF-2 degraded (percentage relative to T=0) (FGF-2; 37° C., 24 hrs): 80%
- FGF-2 degradation (percentage relative to T=0) (FGF-2; 50° C., 3 hrs): 80%
- FGF-2 degradation (in words) (FGF-2; 80° C., 3 hrs): total degradation
- FGF-2 concentration in the presence of cathepsin G (cathepsin G; 0 minutes): 339.05 ± 7.43 pg/mL
- FGF-2 concentration Temperature control (cathepsin G; 0 minutes): 391.8 ± 3.64 pg/mL
- Degradation % in the presence of cathepsin G (cathepsin G; 0 minutes): 13.29%
- FGF-2 concentration in the presence of cathepsin G (cathepsin G; 15 minutes): 295.61 ± 8.49 pg/mL
- FGF-2 concentration Temperature control (cathepsin G; 15 minutes): 324.99 ± 1.7 pg/mL
- Degradation % in the presence of cathepsin G (cathepsin G; 15 minutes): 8.95%
- FGF-2 concentration in the presence of cathepsin G (cathepsin G; 30 minutes): 248.04 ± 1.97 pg/mL
- FGF-2 concentration Temperature control (cathepsin G; 30 minutes): 291.83 ± 2.4 pg/mL
- Degradation % in the presence of cathepsin G (cathepsin G; 30 minutes): 14.77%
- FGF-2 concentration in the presence of cathepsin G (cathepsin G; 60 minutes): 203.67 ± 1.13 pg/mL
- FGF-2 concentration Temperature control (cathepsin G; 60 minutes): 280.64 ± 3.23 pg/mL
- Degradation % in the presence of cathepsin G (cathepsin G; 60 minutes): 27.5%
- FGF-2 concentration in the presence of cathepsin G (cathepsin G; 90 minutes): 141.94 ± 5.14 pg/mL
- FGF-2 concentration Temperature control (cathepsin G; 90 minutes): 259.81 ± 4.9 pg/mL
- Degradation % in the presence of cathepsin G (cathepsin G; 90 minutes): 45.55%
- FGF-2 concentration in the presence of cathepsin G (cathepsin G; 120 minutes): 131.36 ± 2.49 pg/mL
- FGF-2 concentration Temperature control (cathepsin G; 120 minutes): 241.67 ± 1.97 pg/mL
- Degradation % in the presence of cathepsin G (cathepsin G; 120 minutes): 45.6%
- half-life time of FGF-2 in vitro [1]: about 24 hours
- Proliferation (as a percentage) of fibroblasts relative to the non-treated control ([2]; FGF-2 0.5 ng/ml, 0.5% 5c extract during 24 hrs at 37° C. (0.0025% on the cells)): 148.5% ± 0.007
- Proliferation (expressed as percent relative to the non-treated well) ([2]; FGF-2 concentration 0.1 ng/ml): 116.7 ± 0.012%
- Proliferation (expressed as percent relative to the non-treated well) ([2]; FGF-2 concentration 0.25 ng/ml): 138.7 ± 0.005%
- Proliferation (expressed as percent relative to the non-treated well) ([2]; FGF-2 concentration 0.5 ng/ml): 148.5 ± 0.007%
- Proliferation (expressed as percent relative to the non-treated well) ([2]; FGF-2 concentration 0.75 ng/ml): 163.2 ± 0.005%
- Proliferation (expressed as percent relative to the non-treated well) ([2]; FGF-2 concentration 1 ng/ml): 160 ± 0.003%
